Laboratory results published in patent US20240182540A1.

Target: EGFRvIII variant of EGFR, expressed on CT2AvIII cells (UniProt P00533)
Assay: cell-based or functional assay

## third-generation EGFRvIII-targeting CAR (anti-EGFRvIII scFv clone 139 fused to CD8 hinge and TM, CD28, 4-1BB and CD3zeta), on transduced mouse T cells
  percent survival of tumor cells, in vitro cytotoxicity against a 70:30 mixture of CT2A:CT2AvIII, 24 h co-culture: 75%
